Laboratory results from US20220372155A1 (LYVGEN BIOPHARMA, published 2022).

B1: Ly519 (bispecific antibody, human IgG1, kappa)
heavy: QVTLKESGPALVKPTQTLTLTCTFSGFSLSTSGTCVSWIRQPPGKALEWLATICWEDSKGYNPSLKSRLTISKDTSKNQAVLTMTNMDPVDTATYYCARREDSGYFWFPYWGQGTLVTVSSASTKGPSVFPLAPSSKSTSGGTAALGCLVKDYFPEPVTVSWNSGALTSGVHTFPAVLQSSGLYSLSSVVTVPSSSLGTQTYICNVNHKPSNTKVDKKVEPKSCDKTHTCPPCPAPELLGPSVFLFPPKPKDTLMISRTPEVTCVVVDVSHEDPEVKFNWYVDGVEVHNAKTKPREEQYNSTYRVVSVLTVLHQDWLNGKEYKCKVSNKALPAPIEKTISKAKGQPREPQVYTLPPSREEMTKNQVSLTCLVKGFYPSDIAVEWESNGQPENNYKTTPPVLDSDGSFFLYSKLTVDKSRWQQGNVFSCSVMHEALHNHYTQKSLSLSPGK
light: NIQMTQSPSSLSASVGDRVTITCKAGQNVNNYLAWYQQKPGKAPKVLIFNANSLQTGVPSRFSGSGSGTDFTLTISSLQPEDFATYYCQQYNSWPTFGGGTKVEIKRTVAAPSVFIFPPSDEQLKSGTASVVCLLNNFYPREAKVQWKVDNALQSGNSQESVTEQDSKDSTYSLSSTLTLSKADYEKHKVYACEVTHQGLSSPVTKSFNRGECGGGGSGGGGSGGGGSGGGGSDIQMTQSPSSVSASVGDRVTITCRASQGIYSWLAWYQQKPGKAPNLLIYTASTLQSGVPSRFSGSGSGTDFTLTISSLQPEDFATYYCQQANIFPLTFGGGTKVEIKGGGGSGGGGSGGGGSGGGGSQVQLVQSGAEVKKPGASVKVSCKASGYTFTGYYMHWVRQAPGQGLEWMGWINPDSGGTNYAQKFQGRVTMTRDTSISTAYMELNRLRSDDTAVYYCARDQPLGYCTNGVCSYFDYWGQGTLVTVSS
notes: Ly516 HC (IgG1 mutated Fc) + Ly516 LC-Ly253 scFv VL-VH
B2: Ly520 (bispecific antibody, human IgG1, kappa)
heavy: B1 heavy
light: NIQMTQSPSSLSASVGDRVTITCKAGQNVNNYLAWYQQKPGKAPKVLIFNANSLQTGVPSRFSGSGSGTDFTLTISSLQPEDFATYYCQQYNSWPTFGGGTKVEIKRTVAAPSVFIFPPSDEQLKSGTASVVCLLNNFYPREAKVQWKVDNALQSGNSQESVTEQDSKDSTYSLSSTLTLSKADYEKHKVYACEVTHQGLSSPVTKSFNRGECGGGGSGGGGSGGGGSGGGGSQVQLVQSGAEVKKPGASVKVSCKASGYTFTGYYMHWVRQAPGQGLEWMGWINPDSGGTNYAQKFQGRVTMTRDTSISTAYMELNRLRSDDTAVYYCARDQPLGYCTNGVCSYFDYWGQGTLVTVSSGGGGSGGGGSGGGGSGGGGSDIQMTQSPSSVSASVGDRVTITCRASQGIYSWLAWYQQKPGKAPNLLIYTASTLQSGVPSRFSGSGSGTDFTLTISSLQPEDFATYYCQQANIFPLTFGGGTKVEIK
notes: Ly516 HC (IgG1 mutated Fc) + Ly516 LC-Ly253 scFv VH-VL
B3: Ly517 (bispecific antibody, human IgG1, kappa)
heavy: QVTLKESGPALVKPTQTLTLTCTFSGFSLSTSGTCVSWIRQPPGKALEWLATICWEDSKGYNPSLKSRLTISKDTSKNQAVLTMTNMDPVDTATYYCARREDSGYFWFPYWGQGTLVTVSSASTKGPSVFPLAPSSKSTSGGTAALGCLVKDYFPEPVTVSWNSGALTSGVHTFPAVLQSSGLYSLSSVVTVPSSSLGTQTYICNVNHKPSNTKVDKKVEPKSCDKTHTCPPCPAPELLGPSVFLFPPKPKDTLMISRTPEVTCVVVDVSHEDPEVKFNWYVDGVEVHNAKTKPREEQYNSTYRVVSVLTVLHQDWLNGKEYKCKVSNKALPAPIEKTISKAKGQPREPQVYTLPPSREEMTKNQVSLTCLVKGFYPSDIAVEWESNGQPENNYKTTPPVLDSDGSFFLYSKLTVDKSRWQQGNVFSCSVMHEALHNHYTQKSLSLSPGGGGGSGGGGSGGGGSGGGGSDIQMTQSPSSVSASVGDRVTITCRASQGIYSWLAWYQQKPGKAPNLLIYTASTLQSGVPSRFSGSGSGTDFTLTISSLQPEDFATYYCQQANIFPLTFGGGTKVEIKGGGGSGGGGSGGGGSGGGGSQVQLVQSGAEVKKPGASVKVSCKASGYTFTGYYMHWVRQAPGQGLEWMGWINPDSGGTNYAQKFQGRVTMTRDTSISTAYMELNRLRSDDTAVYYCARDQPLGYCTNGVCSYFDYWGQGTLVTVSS
light: NIQMTQSPSSLSASVGDRVTITCKAGQNVNNYLAWYQQKPGKAPKVLIFNANSLQTGVPSRFSGSGSGTDFTLTISSLQPEDFATYYCQQYNSWPTFGGGTKVEIKRTVAAPSVFIFPPSDEQLKSGTASVVCLLNNFYPREAKVQWKVDNALQSGNSQESVTEQDSKDSTYSLSSTLTLSKADYEKHKVYACEVTHQGLSSPVTKSFNRGEC
notes: Ly516 HC (IgG1 mutated Fc)-Ly253 scFv VL-VH + Ly516 LC
B4: Ly518 (bispecific antibody, human IgG1, kappa)
heavy: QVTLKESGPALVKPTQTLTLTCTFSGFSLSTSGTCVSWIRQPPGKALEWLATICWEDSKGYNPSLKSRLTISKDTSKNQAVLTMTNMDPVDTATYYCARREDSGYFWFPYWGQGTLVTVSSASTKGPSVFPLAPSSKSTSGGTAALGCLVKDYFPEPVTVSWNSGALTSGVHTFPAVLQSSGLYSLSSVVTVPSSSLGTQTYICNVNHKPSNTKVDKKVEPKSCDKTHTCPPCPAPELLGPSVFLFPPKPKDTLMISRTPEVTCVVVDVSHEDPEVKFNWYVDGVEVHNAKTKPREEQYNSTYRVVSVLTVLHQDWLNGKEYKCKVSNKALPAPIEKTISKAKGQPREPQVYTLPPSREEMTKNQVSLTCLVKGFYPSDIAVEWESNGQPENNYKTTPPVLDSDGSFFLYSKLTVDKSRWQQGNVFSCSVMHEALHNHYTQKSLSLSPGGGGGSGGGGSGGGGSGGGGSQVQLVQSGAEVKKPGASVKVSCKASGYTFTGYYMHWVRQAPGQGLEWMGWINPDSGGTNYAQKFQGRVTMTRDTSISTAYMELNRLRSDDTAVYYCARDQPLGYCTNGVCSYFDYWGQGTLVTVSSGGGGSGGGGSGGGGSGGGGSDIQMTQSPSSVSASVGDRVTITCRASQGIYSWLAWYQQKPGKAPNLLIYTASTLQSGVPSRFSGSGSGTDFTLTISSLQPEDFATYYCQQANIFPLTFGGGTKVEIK
light: B3 light
notes: Ly516 HC (IgG1 mutated Fc)-Ly253 scFv VH-VL + Ly516 LC
B5: Ly607 (bispecific antibody, human IgG1, kappa)
heavy: QVTLKESGPALVKPTQTLTLTCTFSGFSLSTSGTCVSWIRQPPGKALEWLATICWEDSKGYNPSLKSRLTISKDTSKNQAVLTMTNMDPVDTATYYCARREDSGYFWFPYWGQGTLVTVSSASTKGPSVFPLAPSSKSTSGGTAALGCLVKDYFPEPVTVSWNSGALTSGVHTFPAVLQSSGLYSLSSVVTVPSSSLGTQTYICNVNHKPSNTKVDKKVEPKSCDKTHTCPPCPAPELLGPSVFLFPPKPKDTLMISRTPEVTCVVVDVSHEDPEVKFNWYVDGVEVHNAKTKPREEQYNSTYRVVSVLTVLHQDWLNGKEYKCKVSNKALPAPIEKTISKAKGQPREPQVYTLPPSREEMTKNQVSLTCLVKGFYPSDIAVEWESNGQPENNYKTTPPVLDSDGSFFLYSKLTVDKSRWQQGNVFSCSVMHEALHNHYTQKSLSLSPGGGGGSGGGGSGGGGSGGGGSQVQLVESGGGLVQPGGSLKLSCATSGFNFNDYFMNWVRQASGKGLEWVGQIRNKNYNYATYYTESLEGRVTISRDDSKNTAYLQMNSLKTEDTAVYYCTSYYYDGFADYFDYWGQGTTVTVSSGGGGSGGGGSGGGGSGGGGSDIQMTQSPSSLSASVGDRVTITCKASQNIYIYLNWYQQKPGKAPKLLIYNTNNLQTGVPSRFSGSGSGTDFTLTISSLQPEDFATYYCLQHSSRRTFGGGTKVEIK
light: B3 light
notes: Ly516 HC (IgG1 mutated Fc)-TM740 scFv VH-VL + Ly516 LC
B6: Ly606 (bispecific antibody, human IgG1, kappa)
heavy: QVTLKESGPALVKPTQTLTLTCTFSGFSLSTSGTCVSWIRQPPGKALEWLATICWEDSKGYNPSLKSRLTISKDTSKNQAVLTMTNMDPVDTATYYCARREDSGYFWFPYWGQGTLVTVSSASTKGPSVFPLAPSSKSTSGGTAALGCLVKDYFPEPVTVSWNSGALTSGVHTFPAVLQSSGLYSLSSVVTVPSSSLGTQTYICNVNHKPSNTKVDKKVEPKSCDKTHTCPPCPAPELLGPSVFLFPPKPKDTLMISRTPEVTCVVVDVSHEDPEVKFNWYVDGVEVHNAKTKPREEQYNSTYRVVSVLTVLHQDWLNGKEYKCKVSNKALPAPIEKTISKAKGQPREPQVYTLPPSREEMTKNQVSLTCLVKGFYPSDIAVEWESNGQPENNYKTTPPVLDSDGSFFLYSKLTVDKSRWQQGNVFSCSVMHEALHNHYTQKSLSLSPGGGGGSGGGGSGGGGSGGGGSDIQMTQSPSSLSASVGDRVTITCKASQNIYIYLNWYQQKPGKAPKLLIYNTNNLQTGVPSRFSGSGSGTDFTLTISSLQPEDFATYYCLQHSSRRTFGGGTKVEIKGGGGSGGGGSGGGGSGGGGSQVQLVESGGGLVQPGGSLKLSCATSGFNFNDYFMNWVRQASGKGLEWVGQIRNKNYNYATYYTESLEGRVTISRDDSKNTAYLQMNSLKTEDTAVYYCTSYYYDGFADYFDYWGQGTTVTVSS
light: B3 light
notes: Ly516 HC (IgG1 mutated Fc)-TM740 scFv VL-VH + Ly516 LC
B7: Ly616 (bispecific antibody, human IgG1, kappa)
heavy: QVQLQQPGAELVKPGASVKLSCKASGYTFTSYWMHWVKQRPGQGLEWIGMIHPNSGGTNYNEKFKGKGTLTVDKSSSTAYMQLSSLTSDDSAVYYCVTSQATWFAYWGQGTLVTVSAASTKGPSVFPLAPSSKSTSGGTAALGCLVKDYFPEPVTVSWNSGALTSGVHTFPAVLQSSGLYSLSSVVTVPSSSLGTQTYICNVNHKPSNTKVDKKVEPKSCDKTHTCPPCPAPELLGPSVFLFPPKPKDTLMISRTPEVTCVVVDVSHEDPEVKFNWYVDGVEVHNAKTKPREEQYNSTYRVVSVLTVLHQDWLNGKEYKCKVSNKALPAPIEKTISKAKGQPREPQVYTLPPSREEMTKNQVSLTCLVKGFYPSDIAVEWESNGQPENNYKTTPPVLDSDGSFFLYSKLTVDKSRWQQGNVFSCSVMHEALHNHYTQKSLSLSPGGGGGSGGGGSGGGGSGGGGSDIQMTQSPSSLSASVGDRVTITCLASEDISNDLAWYQQKPGKAPKLLIYFVDRLLDGVPSRFSGSGSGTDFTLTISSLQPEDFATYYCQQSYKYPPTFGQGTKLEIKGGGGSGGGGSGGGGSGGGGSEVQLVESGGGLVQPGGSLRLSCAASGFTFTNYGLHWVRQAPGKGLEWVSSISPSGGVTYYRDSVKGRFTISRDNSKNTLYLQMNSLRAEDTAVYYCAKPFLGWGGANWIAHWGQGTLVTVSS
light: ENVLTQSPAIMSVSPGEKVTMTCRASSSVSSSYLHWYQQKSGASPKFWIYSTSNLASGVPARFSGSGSGTSYSLTISSVEAEDAATYYCQHYSGYPLTFGAGTKLELRRTVAAPSVFIFPPSDEQLKSGTASVVCLLNNFYPREAKVQWKVDNALQSGNSQESVTEQDSKDSTYSLSSTLTLSKADYEKHKVYACEVTHQGLSSPVTKSFNRGEC
notes: Ly387 HC (IgG1 mutated Fc)-TM559 scFv VL-VH + Ly387 LC
B8: Ly617 (bispecific antibody, human IgG1, kappa)
heavy: QVQLQQPGAELVKPGASVKLSCKASGYTFTSYWMHWVKQRPGQGLEWIGMIHPNSGGTNYNEKFKGKGTLTVDKSSSTAYMQLSSLTSDDSAVYYCVTSQATWFAYWGQGTLVTVSAASTKGPSVFPLAPSSKSTSGGTAALGCLVKDYFPEPVTVSWNSGALTSGVHTFPAVLQSSGLYSLSSVVTVPSSSLGTQTYICNVNHKPSNTKVDKKVEPKSCDKTHTCPPCPAPELLGPSVFLFPPKPKDTLMISRTPEVTCVVVDVSHEDPEVKFNWYVDGVEVHNAKTKPREEQYNSTYRVVSVLTVLHQDWLNGKEYKCKVSNKALPAPIEKTISKAKGQPREPQVYTLPPSREEMTKNQVSLTCLVKGFYPSDIAVEWESNGQPENNYKTTPPVLDSDGSFFLYSKLTVDKSRWQQGNVFSCSVMHEALHNHYTQKSLSLSPGGGGGSGGGGSGGGGSGGGGSEVQLVESGGGLVQPGGSLRLSCAASGFTFTNYGLHWVRQAPGKGLEWVSSISPSGGVTYYRDSVKGRFTISRDNSKNTLYLQMNSLRAEDTAVYYCAKPFLGWGGANWIAHWGQGTLVTVSSGGGGSGGGGSGGGGSGGGGSDIQMTQSPSSLSASVGDRVTITCLASEDISNDLAWYQQKPGKAPKLLIYFVDRLLDGVPSRFSGSGSGTDFTLTISSLQPEDFATYYCQQSYKYPPTFGQGTKLEIK
light: B7 light
notes: Ly387 HC (IgG1 mutated Fc)-TM559 scFv VH-VL + Ly387 LC

Molecular target: T1, Human PD-1-ECD protein (mouse IgG2a Fc tag) (human, UniProt Q15116 25-170)
T1 construct: extracellular domain; also called soluble human recombinant PD-1; not shown: mouse IgG2a Fc tag
Test: bridging ELISA, coated CD40 ECD-His, soluble PD-1 ECD-mFc
Method: (§1) Briefly, human CD40 ECD protein (His tag) was diluted and coated onto an ELISA plate with a volume of […] by incubation at 4° C. overnight. […] After 1-hour incubation at room temperature, HRP-conjugated anti-Mouse IgG (H+L) antibody was added into the plate at 100 μL/well. The plate was incubated for 1 hour at room temperature followed by washing. TMB substrate solution was added at 100 μL/well and the color development was stopped by adding 100 uL/well Stop Solution (2N H2SO4). Absorbance at 450 nm and 620 nm was read by Tecan F200 Pro plate reader. GraphPad 7.0, “[Agonist] vs. response—Variable slope (four parameters)” was used to plot the binding data and calculate binding EC50 values.

T1 sequence (Q15116 25-170): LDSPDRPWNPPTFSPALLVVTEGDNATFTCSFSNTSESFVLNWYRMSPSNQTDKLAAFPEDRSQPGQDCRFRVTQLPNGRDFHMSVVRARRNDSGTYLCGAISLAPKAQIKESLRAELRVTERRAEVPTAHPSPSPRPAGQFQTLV

| binding result | Binder |
| --- | --- |
| binds | B1 |
| binds | B2 |
| binds | B3 |
| binds | B4 |
| binds | B5 |
| binds | B6 |

Molecular target: T2, Ly090 (human CD40 ECD protein with His tag) (human, UniProt P25942 21-193)
T2 construct: extracellular domain; also called human CD40 ECD protein (His tag); recombinant human CD40; not shown: His tag
Test: as above
Method: as §1

T2 sequence (P25942 21-193): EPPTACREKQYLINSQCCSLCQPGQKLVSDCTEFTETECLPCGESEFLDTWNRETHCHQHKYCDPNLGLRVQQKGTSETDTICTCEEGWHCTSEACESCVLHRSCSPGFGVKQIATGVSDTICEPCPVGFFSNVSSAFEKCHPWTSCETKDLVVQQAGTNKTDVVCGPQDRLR

| binding result | Binder |
| --- | --- |
| binds | B1 |
| binds | B2 |
| binds | B3 |
| binds | B4 |
| binds | B5 |
| binds | B6 |

Molecular target: T3, human CD40 expressed on CHO cells (human, UniProt P25942 21-277)
T3 construct: whole, on cells; also used for the reporter cells over-expressing human CD40; also called cellular CD40; CHO-CD40 cells
Test: FACS, CHO cells

T3 sequence (P25942 21-277): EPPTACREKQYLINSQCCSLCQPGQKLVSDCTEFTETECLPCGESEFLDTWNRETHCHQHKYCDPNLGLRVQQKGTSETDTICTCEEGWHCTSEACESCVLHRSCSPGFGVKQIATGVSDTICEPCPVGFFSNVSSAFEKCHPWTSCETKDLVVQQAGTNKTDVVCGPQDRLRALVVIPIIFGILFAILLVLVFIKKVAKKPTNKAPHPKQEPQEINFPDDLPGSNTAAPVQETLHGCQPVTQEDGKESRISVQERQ

| binding result | Binder |
| --- | --- |
| binds | B1 |
| binds | B2 |
| binds | B7 |
| binds | B8 |
| binds | B3 |
| binds | B4 |
| binds | B5 |
| binds | B6 |

Molecular target: T4, human PD-1 expressed on CHO cells (human, UniProt Q15116 25-288)
T4 construct: whole, on cells; also used for human PD-1 on Jurkat reporter cells; also called Jurkat/NFkB-Luci/PD-1 cells
Test: FACS, CHO cells

T4 sequence (Q15116 25-288): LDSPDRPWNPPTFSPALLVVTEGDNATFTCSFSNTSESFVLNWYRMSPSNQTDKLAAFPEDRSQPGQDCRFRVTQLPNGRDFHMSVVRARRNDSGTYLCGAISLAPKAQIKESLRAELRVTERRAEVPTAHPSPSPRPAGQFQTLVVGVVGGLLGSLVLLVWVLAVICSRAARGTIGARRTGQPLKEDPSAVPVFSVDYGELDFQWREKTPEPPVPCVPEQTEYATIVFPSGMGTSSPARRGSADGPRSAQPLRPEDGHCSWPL

| binding result | Binder |
| --- | --- |
| binds | B1 |
| binds | B2 |
| binds | B3 |
| binds | B4 |
| binds | B5 |
| binds | B6 |

Molecular target: T5, Human CD40 ECD protein (mouse IgG2a Fc tag) (human, UniProt P25942 21-193)
T5 construct: extracellular domain; also called Human CD40-msFc; human recombinant CD40; not shown: mouse IgG2a Fc tag
Test: bridging ELISA, coated B7H3-His, soluble CD40-msFc
Method: Anti-B7H3/CD40 bi-specific antibodies were analyzed by ELISA for their simultaneous binding to recombinant human B7H3 and human CD40. Briefly, Human B7H3 CD protein (His-tag) was diluted and coated onto an ELISA plate with a volume of […] by incubation at 4° C. overnight. The next day, the plate was blocked with PBST-BSA buffer, then serially diluted samples of anti-B7H3/CD40 bi-specific antibodies were pipetted into appropriate wells at 50 μL/well, and the plate was incubated for 1 h followed by washing. Human CD40-msFc antibody was added into the plate at 50 μL/well. After 1-hour incubation at room temperature, […] anti-Mouse IgG (H+L) antibody was added into the plate at 100 μL/well. The plate was incubated for 1 hour at room temperature followed by washing. TMB substrate solution was added at 100 p L/well and the color development was stopped by adding 100 uUwell Stop Solution (2N H2SO4). Absorbance at 450 nm and 620 nm was read by Tecan F200 Pro plate reader. GraphPad 7.0, “[Agonist] vs. response—Variable slope (four parameters)” was used to plot the binding data and calculate binding EC50 values.

T5 sequence (P25942 21-193): as the sequence (P25942 21-193) above

| binding result | Binder |
| --- | --- |
| binds | B7 |
| binds | B8 |
